Reference: patent US20100272689A1, “Protease Having Algicidal Activity, Gene Encoding the Same and Algicidal Formulation Comprising the Same” (KOREA OCEAN RESEARCH & DEVELOPMENT INSTITUTE, priority 2007, published 2010)

Tests used:
Experiment in all cases: Algicidal activity by cell count after 24 hr (Lugol staining)
Assay type in all cases: cell-based
Skeletonema costatum = settings: for Algicidal activity (degree of inhibition): 50 μl of protein (100 μg/ml), after 24 hr
Procedure: (§1) Organisms used as host for algicidal bacteria screen are Cochlodinium polykrikoides, Thalassiosira sp., Heterosigma akashiwo, Skeletonema costatum, Alexandrium sp., Gymnodium sp., Chaetoceros cuvisetus. Each algae cell was grown to log phase in F/2 broth (0.075 g NaNO3, 0.005 g NaH2PO4?H2O, 0.030 g Na2SiO3?9H2O, 1 ml F/2 trace metal solution, 1 ml F/2 vitamin solution and 1,000 ml aged seawater) [Stein, Handbook of phycological methods, Cambridge Univ. Press, 1973].
(§2) The cultured red tide organisms were diluted in F/2 broth to a final density of 0.05 (excitation wavelength=434 nm, emission wavelength=670 nm)on the fluorescent intensity using fluoro-spectrophotometer (Hitachi, Japan), and then 2.7 ml aliquots were dispensed into several test tubes (110 mm×10 mm) to prepare for the MPN (most probable number) method.
(§3) To measure algicidal activity of 10476—7 protein (SEQ ID NO:27), 50 μl of said protein (100 μg/ml) was added to the culture solutions of Cochlodinium polykrikoides, Thalassiosira sp., Heterosigma akashiwo, Skeletonema costatum, Alexandrium sp., Chaetoceros cuvisetus and Gymnodniium sp. which were prepared in Example 2. After 24 hr, said culture solutions were stained with 1% Lugol's iodine solution, and then the cell number was counted. Experimental groups with protease (experimental group 1 and 2) were compared with control group without protease in cell number and the degree of inhibition.
(§4) To check algicidal activity of proteins isolated Flavobacterium johnsoniae UW101 (ZP—01247095, SEQ ID NO: 4), Croceibacter atlanticus HTCC2559 (ZP—00951344, SEQ ID NO: 5), Leeuwenhoekiella blandensis MED217 (ZP—01059780, SEQ ID NO: 6) and Kordia algicida KAOT1—11562 (SEQ ID NO: 7), 50 μl of said protein (100 μg/ml) was added to the culture solutions of Cochlodinium polykrikoides, Thalassiosira sp., Heterosigma akashiwo, Skeletonema costatum, Alexandrium sp., Chaetoceros cuvisetus, and Gymnodium sp., which were prepared in Example 2. After 24 hr, said culture solutions were stained with 1% Lugol's iodine solution, and then the cell number was counted.
(§5) Experimental groups with protease (experimental group 1 and 2) were compared with control group without protease in cell number and the degree of inhibition.

Thalassiosira sp. = settings: for Algicidal activity (degree of inhibition): 50 μl of protein (100 μg/ml), after 24 hr
Procedure: as §1, §2, §3, §4, §5

Heterosigma akashiwo = settings: for Algicidal activity (degree of inhibition): 50 μl of protein (100 μg/ml), after 24 hr
Procedure: as §1, §2, §3, §4, §5

Alexandrium sp. = settings: for Algicidal activity (degree of inhibition): 50 μl of protein (100 μg/ml), after 24 hr
Procedure: as §1, §2, §3, §4, §5

Gymnodinium sp. = settings: for Algicidal activity (degree of inhibition): 50 μl of protein (100 μg/ml), after 24 hr
Procedure: as §1, §2, §3, §4, §5

[1] = test system: Cochlodinium polykrikoides; settings: Cochlodinium polykrikoides; for Algicidal activity (degree of inhibition): 50 μl of protein (100 μg/ml), after 24 hr
Procedure: as §1, §2, §3, §4, §5

Chaetoceros cuvisetus = settings: for Algicidal activity (degree of inhibition): 50 μl of protein (100 μg/ml), after 24 hr
Procedure: as §1, §2, §3, §4, §5

B1: FJ: protein of Flavobacterium johnsoniae UW101 with homology to KAOT1—10476 (protein, listed as Flavobacterium johnsoniae)
chain: MKKIKSILILSFTALVLLSCNKEDETVSSGQESLKVTPEVLEKLKSLSLNTSDVQVIQNTSLEGAVEDAFLVEGDIIITQAQLNKMDLHGGITTEQYRTTNLVSAPRTIKVVGLSGTGTTALTTNMRNGLQAAINRYNNLGLSINFTLTFSSSTSGANIVVRRQTGSAGGVAGFPSGGNPYNSVTLYSGLDSYSTNVNAHVAAHEIGHCIGLRHTDWFSRQSCGQNSNEGTAGVGAILIPGTPSGYDATSYMRACFGSNETGAFNANDITALNYLY
modifications: Flavobacterium johnsoniae UW101 (ZP_01247095)
Algicidal activity (degree of inhibition) (Skeletonema costatum): ++ (++ means 25-50%)
Algicidal activity (degree of inhibition) (Thalassiosira sp.): ++++ (++++ means >75% the degree of inhibition)
Algicidal activity (degree of inhibition) (Heterosigma akashiwo): ++++ (++++ means >75% the degree of inhibition)
Algicidal activity (degree of inhibition) (Alexandrium sp.): ++++ (++++ means >75% the degree of inhibition)
Algicidal activity (degree of inhibition) (Gymnodinium sp.): ++++ (++++ means >75% the degree of inhibition)
Algicidal activity (degree of inhibition) [1]: ++++ (++++ means >75% the degree of inhibition)
Algicidal activity (degree of inhibition) (Chaetoceros cuvisetus): ++++ (++++ means >75% the degree of inhibition)

B2: KAOT1_10476: metallo protease of Kordia algicida OT1: signal peptide (1-27), processing peptide (28-98), mature region (99-278) (protein, listed as Kordia algicida)
chain: MKKIKNLTFALALGLGITMVSCSKDTAVVDEEQDTAIGIPQDVLQKAQSLHFNTFDMQEASFEKPNGKIEEGYMMEGDIFFTRDQLMNMELGGDITSKQYRTNNLVSPGVITIIGYTGNNSNGLTTKMQTGLRWAVDNYNALNLSISFQLTFGTDYQNKDMVVYQVQGGAGGSAGFPSGGNPYKWVKINSGMAPYSNNVHEHVIGHEIGHSIGFRHSDYFSRQSCGQNSNEGSAGVGAIHIPGTPTGWDPTSLMNACFSSSEDGEFNGNDITALNFLY
modifications: KAOT1_10476 of Kordia algicida OT-1
Algicidal activity (in words) (Skeletonema costatum): showed algicidal activity
Algicidal activity (degree of inhibition) (Skeletonema costatum): + (+ means <25%)
Algicidal activity (in words) (Thalassiosira sp.): showed algicidal activity
Algicidal activity (degree of inhibition) (Thalassiosira sp.): ++++ (++++ means >75% the degree of inhibition)
Algicidal activity (in words) (Heterosigma akashiwo): showed algicidal activity
Algicidal activity (degree of inhibition) (Heterosigma akashiwo): ++++ (++++ means >75% the degree of inhibition)
Algicidal activity (in words) (Alexandrium sp.): showed algicidal activity
Algicidal activity (degree of inhibition) (Alexandrium sp.): ++++ (++++ means >75% the degree of inhibition)
Algicidal activity (in words) (Gymnodinium sp.): showed algicidal activity
Algicidal activity (degree of inhibition) (Gymnodinium sp.): ++++ (++++ means >75% the degree of inhibition)
Algicidal activity (in words) [1]: cell growth was inhibited effectively
Algicidal activity (degree of inhibition) [1]: ++++ (++++ means >75% the degree of inhibition)
Algicidal activity (in words) (Chaetoceros cuvisetus): showed algicidal activity
Algicidal activity (degree of inhibition) (Chaetoceros cuvisetus): ++++ (++++ means >75% the degree of inhibition)

B3: CRO: protein of Croceibacter atlanticus HTCC2559 with homology to KAOT1—10476 (protein, listed as Croceibacter atlanticus)
chain: MVFVSCEKDNDTNNAEVADTNEVTTGSLETLGVNTDLTPTNLDQATLDLIASKHLSPIGAQEELRYLPDGTSEKAIRIEGDIVMTKAELEELEFNGYSNENAQYSTNALVSPQTITIIGYTGGSQALTSSEQTALQWAVANYNRLNLNINFSLTFGTNYQNKDMVVYNNTVNNPSGAGGSAGFPSGGNPHKFVQIYGLSNYNTNVIEHVITHEIGHSVGFRHTDYFSRQSCGQNTNEGTAGVGANHIPGTPTGYDSTSIMLACFSSGEDGEFNSNDITALNYLY
modifications: Croceibacter atlanticus HTCC2559 (ZP_00951344)
Algicidal activity (degree of inhibition) (Thalassiosira sp.): ++++ (++++ means >75% the degree of inhibition)
Algicidal activity (degree of inhibition) (Heterosigma akashiwo): ++++ (++++ means >75% the degree of inhibition)
Algicidal activity (degree of inhibition) (Alexandrium sp.): ++++ (++++ means >75% the degree of inhibition)
Algicidal activity (degree of inhibition) (Gymnodinium sp.): ++++ (++++ means >75% the degree of inhibition)
Algicidal activity (degree of inhibition) [1]: ++++ (++++ means >75% the degree of inhibition)
Algicidal activity (degree of inhibition) (Chaetoceros cuvisetus): ++++ (++++ means >75% the degree of inhibition)
